Experimental findings from patent US11360104, “Microbial-based biosensors” (TRUSTEES OF BOSTON UNIVERSITY) are described below.

Data set [1] addresses T1, PinR (AIY20223.2, TetR family) (Pimelobacter simplex).
T1 chain: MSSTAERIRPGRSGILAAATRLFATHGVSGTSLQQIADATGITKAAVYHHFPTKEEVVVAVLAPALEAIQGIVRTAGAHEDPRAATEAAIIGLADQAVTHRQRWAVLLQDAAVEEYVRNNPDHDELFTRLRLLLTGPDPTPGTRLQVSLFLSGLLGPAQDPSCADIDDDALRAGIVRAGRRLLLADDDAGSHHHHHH
Kind of data set: FRET; progesterone for half-maximal DNA release; QD/TF/DNA 1/4/18. Particulars: tags: C-terminal His6, self-assembled on CdSe/CdS/ZnS quantum dot; label: Cy5 at 5' and 3'.

In data set [2] the target is T2, TetRc-tdTomato (UniProt P03039 P03039:1-219).
T2 chain: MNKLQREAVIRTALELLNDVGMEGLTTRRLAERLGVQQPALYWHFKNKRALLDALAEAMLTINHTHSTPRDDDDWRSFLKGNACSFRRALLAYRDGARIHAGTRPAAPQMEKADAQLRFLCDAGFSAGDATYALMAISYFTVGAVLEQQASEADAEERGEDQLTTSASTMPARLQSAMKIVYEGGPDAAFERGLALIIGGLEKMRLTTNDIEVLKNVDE
The data set can be described thus: FRET; aTc concentration for half-maximal DNA release; 5 mM MgCl2. The settings on record: tags: tdTomato fusion, Strep-tag purified; chain copies: 2; label: Cy5 at 5' and 3' of reverse strand. As for the experimental part:
(§1) At higher concentrations of aTc, binding of the TF and DNA is disrupted, reducing FRET, thereby increasing donor emission and reducing acceptor emission. Spectra are background subtracted to eliminate the effects of direct acceptor excitation. FIG. 3D-3F show the ratio of acceptor fluorescence intensity to donor fluorescence intensity as a function of aTc concentration. […] Sensor 1 was prepared with a 1:1:3 ratio of tdTomato:TF:DNA, while sensors 2 and 3 were prepared with a 1:4:18 ratio of QD:TF:DNA. tdTomato (200 nM) and QD (50 nM) concentrations were selected to keep TF concentration constant at 200 nM. Data are mean±standard deviation for n=3.
(§2) A TF to DNA ratio was chosen for each sensor (1:3 for Sensor 1, 1:4.5 for Sensors 2 and 3) and kept constant for subsequent experiments testing sensor sensitivity to aTc. Photoluminescence spectra were measured from sensors with increasing concentrations of aTc yielded changes in the ratio between the acceptor emission and donor emission (F_A/F_D). With increasing concentrations of aTc, F_A/F_D values decreased indicating unbinding of the DNA from the TF resulting in an increase in donor emission and decrease in acceptor emission (FIG. 3A-F). No changes were observed when aTc was titrated into a solution of non-binding donor-acceptor pairs (scrambled controls). […]

Data set [3] addresses T3, TetRc-6His (UniProt P03039 P03039:1-219).
T3 chain: T2 chain
Described as above. The settings on record: tags: His6, on quantum dot QD1; chain copies: 2; label: Cy5 at 5' and 3' of reverse strand. As for the experimental part:
as §1, §2

Data set [4] has as its target T4, TetRd-6His (UniProt P0ACT4 P0ACT4:2-218). Kind of data set: FRET; aTc for half-maximal DNA release; lower DNA affinity than TetRc; 5 mM MgCl2. Particulars: tags: His6, on quantum dot QD2; chain copies: 2; label: Cy5 at 5' and 3' of reverse strand.
For data set [5], the target named is T1, PinR (AIY20223.2, TetR family). The data set can be described thus: FRET; progesterone concentration for half-maximal DNA release; QD/TF/DNA 1/4/18; described as strongest binding sequence. Particulars: tags: C-terminal His6, self-assembled on CdSe/CdS/ZnS quantum dot; label: Cy5 at 5' and 3'.
Data set [6] addresses T2, TetRc-tdTomato. Kind of data set: FRET; only collisional quenching. The settings on record: tags: tdTomato fusion, Strep-tag purified; chain copies: 2; label: Cy5 at 5' and 3' of reverse strand. As for the experimental part: (§3) For QD-based nanoconstructs, the his-tagged proteins self-assemble to the QD surface stoichiometrically according to the mixture ratio with a Poissonian distribution of proteins on the QD surface was used. […] Four his6-TetR monomers were used per QD for the titrations of Sensors 2 and 3 (FIG. 2A-C). […] Upon increasing DNA concentration, there is increased donor quenching in all three cases.
(§4) FRET assays. The FRET response of each sensor as a function of the donor-acceptor ratio was tested by titration of the acceptor while the concentration of the donor was kept constant. Briefly, the sensors were prepared in a solution of TBS+0.2% (w/v) BSA and 1× binding buffer (20 mM Tris-HCl, 5 mM MgCl_2, 5% glycerol, 50 ng/µl salmon sperm DNA). For Sensor 1, the final concentration of tetR-tdTomato was kept constant at 200 nM, while Cy5-modified DNA were titrated to yield donor-acceptor ratios ranging from 0-9. The sensor solution was pipetted into wells of a black, non-binding 384-well plate (Corning) with a final volume of 60 µl. For triplicate measurements, each of the above solutions were prepared with a final volume of 180 µl in microcentrifuge tubes and pipetted into 3 separate wells of 60 µl each.

Data set [7] addresses T3, TetRc-6His. Kind of data set: FRET; only collisional quenching. The settings on record: tags: His6, on quantum dot QD1; chain copies: 2; label: Cy5 at 5' and 3' of reverse strand. As for the experimental part: as §3, §4
(§5) For Sensors 2 and 3, QDs and tetR-6His were mixed at a 1:4 ratio with a final QD concentration of 50 nM for self-assembly of the tetR-6His to the surface of the QDs[21]. […]

The target of data set [8] is T4, TetRd-6His. Kind of data set: FRET; only collisional quenching. Particulars: tags: His6, on quantum dot QD2; chain copies: 2; label: Cy5 at 5' and 3' of reverse strand. As for the experimental part:
as §3, §4, §5

T4 sequence (P0ACT4 2-218, one chain of several): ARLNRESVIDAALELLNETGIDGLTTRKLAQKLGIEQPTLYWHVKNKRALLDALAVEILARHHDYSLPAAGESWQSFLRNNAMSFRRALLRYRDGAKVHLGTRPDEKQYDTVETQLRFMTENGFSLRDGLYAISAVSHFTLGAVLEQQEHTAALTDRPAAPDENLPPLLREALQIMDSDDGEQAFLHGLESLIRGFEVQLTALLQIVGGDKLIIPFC

B1: DNA2 (IG.AIY19519.15) (dsDNA)
DNA 1: GCCTAACTAGCCGATCGGCTAGTCATTC
DNA 2: GAATGACTAGCCGATCGGCTAGTTAGGC
For orientation: IC50 means the concentration that inhibits the measured activity by half. A low value points to greater potency in that assay. Consider B1, for which the IC50 in data set [1] was 370 nM.

B2: TetO 28 bp (dsDNA)
DNA 1: GTCATCCCTATCATTGATAGAGATACTG
DNA 2: CAGTATCTCTATCAATGATAGGGATGAC
A word on the EC50: it is the concentration that produces a half-maximal response. Read a high EC50 as lower potency in that assay. As to B2, the EC50 with TetRc-tdTomato [2] is 218 nM; with TetRc-6His [3], 699 nM; in the data set with TetRd-6His [4] it was 133 nM.

B3: DNA4 (13,15-T,T) (dsDNA)
DNA 1: CCTTAACTAGCCGTTCTGTTAGTTATTC
DNA 2: GAATAACTAACAGAACGGCTAGTTAAGG
In data set [1], B3 yielded an IC50 of 150 nM.

B4: DNA1 (AIY20223.2) (dsDNA)
DNA 1: GCCTAACTAGCCGTTCGGCTAGTTATTC
DNA 2: GAATAACTAGCCGAACGGCTAGTTAGGC
B4: the IC50 in data set [5] amounted to 460 nM. In other words, the sub-micromolar range.

B5: Scrambled TetO control (dsDNA)
DNA 1: TCGTGAAACCGAGCGAGGGACACGCACA
DNA 2: TGTGCGTGTCCCTCGCTCGGTTTCACGA
With B5, the binding result in the data set with TetRc-tdTomato [6], with TetRc-6His [7] and with TetRd-6His [8] was “no binding” throughout.

B6: DNA3 (AIY20222.2) (dsDNA)
DNA 1: GCCTAACTAGCCGTTCGGCAAGTAATTC
DNA 2: GAATTACTTGCCGAACGGCTAGTTAGGC
For B6, in data set [1], the midpoint of inhibition, the IC50, lay at 290 nM. This lies in the sub-micromolar range.
